From patent publication US20230357420A1 (VILLARIS THERAPEUTICS, published 2023)
Read-outs that look alike come from different tables or passages of the source.

Assays:
Rhesus CD122 [1] = molecular target: T1, Rhesus CD122 (rhesus monkey, UniProt Q38J85 27-551 (cynomolgus entry)); test: flow cytometry (FACS) on rhIL15Rβ-transfected CHO-K1 cells, anti-human IgG-FITC, GeoMFI
T1 construct: also called rhCD122 on cells
T1 sequence: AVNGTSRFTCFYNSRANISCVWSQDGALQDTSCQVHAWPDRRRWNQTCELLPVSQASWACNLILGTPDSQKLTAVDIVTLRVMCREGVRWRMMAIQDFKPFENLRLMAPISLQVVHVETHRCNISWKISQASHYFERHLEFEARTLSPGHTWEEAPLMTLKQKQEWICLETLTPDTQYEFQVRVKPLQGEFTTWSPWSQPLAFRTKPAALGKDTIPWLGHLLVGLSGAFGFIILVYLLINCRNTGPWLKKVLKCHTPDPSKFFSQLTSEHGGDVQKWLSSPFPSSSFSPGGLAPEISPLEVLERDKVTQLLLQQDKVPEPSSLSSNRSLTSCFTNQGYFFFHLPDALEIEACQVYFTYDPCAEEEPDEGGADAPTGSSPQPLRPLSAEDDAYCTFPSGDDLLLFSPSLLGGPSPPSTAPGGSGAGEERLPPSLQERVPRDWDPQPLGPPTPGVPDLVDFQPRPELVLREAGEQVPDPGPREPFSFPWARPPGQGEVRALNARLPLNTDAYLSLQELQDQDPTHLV
Method: (§1) Purified IgGs were tested in FACs for binding to human and rhesus CD122 expressed on CHO-K1 stable cell lines and CHO-K1 wild-type cells. The IgG samples were titrated in three-fold serial dilutions starting at 500 nM to […]. Binding of IgGs was detected with a mouse anti-human IgG conjugated to FITC. Results were analyzed by examining the Mean Fluorescence Intensity (MFI) of 10000 cells per sample in the BL-1 channel detector of a flow cytometer (AttuneTM NxT Acoustic Focusing Cytometer, Invitrogen/ ThermoFisher Scientific).

Rhesus CD122 [2] = molecular target: T1, Rhesus CD122; test: as above; remark: listed apart in the source
Method: as §1

Human CD122 [3] = molecular target: T2, Human CD122 (human, UniProt P14784 27-551); test: flow cytometry (FACS) on huIL15Rβ-transfected CHO-K1 cells, anti-human IgG-FITC, GeoMFI
T2 construct: also called hCD122; IL2RB
T2 sequence: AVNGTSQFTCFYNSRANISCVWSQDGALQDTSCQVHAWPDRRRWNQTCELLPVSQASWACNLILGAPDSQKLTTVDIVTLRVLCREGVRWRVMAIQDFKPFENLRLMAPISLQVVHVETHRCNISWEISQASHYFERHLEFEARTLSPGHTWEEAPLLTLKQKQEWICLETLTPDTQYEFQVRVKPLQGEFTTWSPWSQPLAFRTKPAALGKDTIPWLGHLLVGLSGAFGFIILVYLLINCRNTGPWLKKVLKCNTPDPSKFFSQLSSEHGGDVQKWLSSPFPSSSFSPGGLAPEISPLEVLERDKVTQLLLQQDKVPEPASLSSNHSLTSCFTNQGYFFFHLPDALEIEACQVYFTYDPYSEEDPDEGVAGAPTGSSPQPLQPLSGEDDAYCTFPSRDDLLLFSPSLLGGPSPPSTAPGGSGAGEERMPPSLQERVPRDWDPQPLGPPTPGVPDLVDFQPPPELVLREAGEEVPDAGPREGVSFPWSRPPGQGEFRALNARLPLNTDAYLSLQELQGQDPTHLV
Method: as §1

Rhesus CD122 [4] = molecular target: T1, Rhesus CD122; test: flow cytometry (FACS) on rhIL15Rβ-transfected CHO-K1 cells, anti-human IgG-FITC, GeoMFI; remark: listed apart in the source
Method: as §1

[5] = molecular target: T3, Human CD122 human Fc tagged recombinant protein (human, UniProt P14784 27-240); test: Alphascreen epitope competition: unlabelled VillMAb-1 at log10 -1.9 to 2 nM against VillMab-1 binding to human CD122-Fc (self-competition); CPS (crosstalk-corrected)
T3 construct: also called human CD122-Fc; not shown: human Fc tag
T3 sequence: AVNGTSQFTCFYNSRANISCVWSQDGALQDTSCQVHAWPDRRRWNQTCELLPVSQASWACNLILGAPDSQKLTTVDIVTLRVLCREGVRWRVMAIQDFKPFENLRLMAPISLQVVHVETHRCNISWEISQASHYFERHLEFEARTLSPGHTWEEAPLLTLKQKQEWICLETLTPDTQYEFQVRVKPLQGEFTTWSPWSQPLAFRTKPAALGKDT

Rhesus CD122 [6] = molecular target: T1, Rhesus CD122; test: flow cytometry (FACS) on rhIL15Rβ-transfected CHO-K1 cells, anti-human IgG-FITC, GeoMFI; remark: listed apart in the source
Method: as §1

Human CD122 [7] = molecular target: T2, Human CD122; test: flow cytometry (FACS) on huIL15Rβ-transfected CHO-K1 cells, anti-human IgG-FITC, GeoMFI; remark: listed apart in the source
Method: as §1

Human CD122 [8] = molecular target: T2, Human CD122; test: as above; remark: listed apart in the source
Method: as §1

Human CD122 [9] = molecular target: T2, Human CD122; test: as above; remark: listed apart in the source
Method: as §1

Human CD122 [10] = molecular target: T2, Human CD122; test: as above; remark: listed apart in the source
Method: as §1

Neudesin = molecular target: T4, Neudesin (human, UniProt Q9UMX5 32-172); test: Retrogenix cell microarray
T4 construct: whole, on cells; Secreted protein; the tether is not described; also called NENF; neudesin neurotrophic factor (on transfected cells)
T4 sequence (Q9UMX5 32-172): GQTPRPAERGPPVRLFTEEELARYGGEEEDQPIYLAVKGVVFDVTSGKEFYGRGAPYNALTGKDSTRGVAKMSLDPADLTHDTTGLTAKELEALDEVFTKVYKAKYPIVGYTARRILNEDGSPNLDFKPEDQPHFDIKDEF

EC50 (read off the curve) (Rhesus CD122 [1]): ~0.7 nM | EC50 (read off the curve) (Rhesus CD122 [2]): ~0.6 nM | EC50 (read off the curve) (Human CD122 [3]): ~0.9 nM | EC50 (read off the curve) (Rhesus CD122 [4]): ~0.7 nM | IC50 (read off the curve) [5]: ~2 nM | EC50 (read off the curve) (Rhesus CD122 [6]): ~0.6 nM | EC50 (read off the curve) (Human CD122 [7]): ~0.9 nM | EC50 (read off the curve) (Human CD122 [8]): ~0.9 nM | EC50 (read off the curve) (Human CD122 [9]): ~0.9 nM | EC50 (read off the curve) (Human CD122 [10]): ~0.9 nM | binding result (Neudesin): no binding
B1: IgG1-MIKβ1 (humanized) (antibody, V domains shown)
VH: EVQLLESGGGLVQPGGSLRLSCAASGFSVTSYGVHWIRQAPGKGLEWLGVIWSGGSTDYNAAFISRLTISKDNSKNTVYFQMNSLQAEDTAIYYCARAGDYNYDGFAYWGQGTLVTVSS
VL: DIVLTQSPSSLSASVGDRVTITCSGSSSVSFMYWYQQRPGKAPRLLIYDTSNLASGVPSRFSGSGSGTSYTFTISSLQPEDIATYYCQQWSTYPLTFGQGTKVEVK
notes: also called VillMab-1; VillMAB-1
